In the supplement of paper PMC9170038:

System: MS2 coat protein
Experiment: apparent KD of MS2 coat protein; designed switch direction (-1 OFF switch, 1 ON switch): -1; higher = weaker reporter binding
Outline: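 Designed RNA switches with common flanks were transcribed on Illumina chips by stalled E. coli RNA polymerase and titrated with SNAP-549-labelled MS2 coat protein, from 0.7 or 1.5 nM doubling to 3 µM, in Tris-HCl pH 7.5 buffer with KCl, MgCl2, BSA, DTT, tRNA and Tween-20. Steps lasted 0.8–1.5 h (lowest) to 10–20 min (highest). Titrations ran without input, with 200 uM small-molecule ligand, or with an oligonucleotide input. Normalised cluster fluorescence was curve-fitted, and apparent KD is the per-design median over clusters.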

[1] = Eterna round: R95, input ligand: microRNA oligo, concentration not stated
[2] = input ligand: microRNA oligo, concentration not stated

Sequence | apparent KD of MS2 coat protein (input ligand: FMN 200 uM) [nM] | apparent KD of MS2 coat protein (input ligand: none) [nM] | apparent KD of MS2 coat protein (Eterna round: R95, input ligand: FMN 200 uM) [nM] | apparent KD of MS2 coat protein [1] [nM] | apparent KD of MS2 coat protein (Eterna round: R95, input ligand: none) [nM] | apparent KD of MS2 coat protein [2] [nM]
UCGUGUAUAGAGGAUAUAUUAUUUUUUAAAACAAUAGAAGGCUAAACAUGAGGAUCACCCAUGUAUUUGGUUUU [JR_Ex6_Sub053] (Eterna round: R97, puzzle: Exclusion 6) | 82.1 | 19.6 |  |  |  | 
UCGUGUAUAGAGGAUAUAUUAUUUUUUUUAACAAUAGAAGGCUAAACAUGAGGAUCACCCAUGUAUUUGGUUUU [JR_Ex6_Sub051] (Eterna round: R97, puzzle: Exclusion 6) | 69.2 | 22.9 |  |  |  | 
UCUAGACAUGAGGAUCACCCAUGUGAGGAUAUGAUGCGAAUAAAGAAAGAAGAAAGCAUCAGAAGGCACAUAUG [Fiskers Ex 1 - 3] (puzzle: Exclusion 1) |  |  | 210 | 116 | 191 | 
UCUAGUUCAGGAUAUGUAGAUUUUAACAUGAGGAUCACCCAUGUAGAUCCUGAAUUAGCUACAGAAGGGAACAUUU [Mod of Brourd 2 - Jieux - Exclusion 5] (Eterna round: R97, puzzle: Exclusion 5) | 18.1 | 13.3 |  |  |  | 
UCUAUAGGGCUGCAGGCUUACAUGAGGAUCACCCAUGUAUAGGGUUUUCUACGCGCUCGUCAUCAUACAUUAAUUCG [Eternabot (L1) Solution 31] (Eterna round: R97, puzzle: Sensor, turn-off variant 1) | 44 | 53.1 |  |  |  | 
UCUCGCUGGCGAGGAUAUCCUGUGCGGUUCCGGCUCGUGUCUGUUACAUGAGGAUCACCCAUGUGGGAGAAGGUGCCUGUGGCC [Design 95] (Eterna round: R96, puzzle: Exclusion NG 2) | 21.1 | 21 |  |  |  | 15.6
UCUCGUUGGCAAGGAUAUCCUACAUUGUUCUGGCCCGGGCAUGCUACAUGAGGAUCACCCAUGUGGGAGAAGGUGCGCCAUUGC [Design 24] (Eterna round: R96, puzzle: Exclusion NG 2) | 80.9 | 65.2 |  |  |  | 49.7
UCUCUUGGGCAAGGAUAUCCUGUGCGGUUCCGGCUCGUGUCUGUCACAUGAGGAUCACCCAUGUGGGAGAAGGUGCCUGCGGUC [Design 81] (Eterna round: R96, puzzle: Exclusion NG 2) | 13.6 | 15.1 |  |  |  | 9.94
UCUUAGUCAGGAUAUACAUGAGGAUCACCCAUGUAAAAUUUUAAUUUAAUUUUAAGGUGUAGAAGGGACCACCU [Ex3 #18] (Eterna round: R97, puzzle: Exclusion 3) | 19.2 | 23.4 |  |  |  | 
UCUUAUAGAGGAUAUACAGAUUAUUACAUGAGGAUCACCCAUGUUCUUCAAUGUAUAUAUGUAGAAGGCUAAGGAU [Mat - Exclusion 5 - JL Mod - D9] (Eterna round: R97, puzzle: Exclusion 5) | 316 | 111 |  |  |  | 
UCUUCACAUGAGGAUCACCCAUGUCAGGAUAUGCUCCCGAGUCACCUUAUCAUGGGACGCAGAAGGGACAUUAU [EX1 B.3] (Eterna round: R97, puzzle: Exclusion 1) | 43 | 19.8 |  |  |  | 
UGACCUUUUGUCAGGAUAUAUAUACGUGUUGGUAGGUAGAAGGGACAUGAGGAUCACCCAUGUGGUUUGAGCUA [Eternabot (L1) Solution 74] (Eterna round: R97, puzzle: Brourd's mod of Exclusion 4) | 433 | 155 |  |  |  | 
UGACGCACGCGAGGAUAUUCCCACGAAACAAACAACGAAGGGUACAUGAGGAUCACCCAUGUGGCGAAGAAGGCGCGCGUCCGG [Eternabot solution 1] (Eterna round: R96, puzzle: Exclusion NG 2) | 923 | 1310 |  |  |  | 503
UGACGUCAUGUCAGGAUAUAGGCGAUGCGUGUCUUCUAGAAGGGACAUGAGGAUCACCCAUGUAAACUUUUGGU [Eternabot (L1) Solution 56] (Eterna round: R97, puzzle: Brourd's mod of Exclusion 4) | 136 | 148 |  |  |  | 
UGAGUAGAUCCGAAGGGAGACAUGAGGAUCACCCAUGUAUUAAGUUUUUAUGCUCGUCGCCUACGUAACCGUAGGAC [Eternabot (Original) Solution 2] (Eterna round: R97, puzzle: Sensor, turn-off variant 1) | 344 | 360 |  |  |  | 
UGAGUGCUGCGAGGAUAUACAUGAGGAUCACCCAUGUGGAUGUCUGAGGCUUUGCCUCAGACGAUGUAGAAGGCGCAGUACUCU [JL ENG2 1.20] (Eterna round: R96, puzzle: Exclusion NG 2) | 100 | 22.1 |  |  |  | 15.2
UGAUCAGACCGAGGAUAUACAUGGAGGACGCACGUGAGUGCGUCCACUACAUGAGGAUCACCCAUGUAGAAGGCGGUCUGAUCU [JL ENG2 1.92] (Eterna round: R96, puzzle: Exclusion NG 2) | 1100 | 144 |  |  |  | 130

Sequence | apparent KD of MS2 coat protein (input ligand: FMN 200 uM) [nM] | apparent KD of MS2 coat protein (input ligand: none) [nM] | apparent KD of MS2 coat protein (Eterna round: R95, input ligand: FMN 200 uM) [nM] | apparent KD of MS2 coat protein [1] [nM] | apparent KD of MS2 coat protein (Eterna round: R95, input ligand: none) [nM] | apparent KD of MS2 coat protein [2] [nM]
UGAUCAGACCGAGGAUAUAUAUGUAGGACCCACGUGAGUGGGUCCAGAACAUGAGGAUCACCCAUGUAGAAGGCGGUCUGAUCU [JL ENG2 1.88] (Eterna round: R96, puzzle: Exclusion NG 2) | 19 | 16.2 |  |  |  | 11.5
UGAUCCCAUGUCAGGAUAUAGAGGCGGUAGCCUGGCUAGAAGGGACAUGAGGAUCACCCAUGUCGGUUCUUGCC (puzzle: Brourd's mod of Exclusion 4) |  |  |  | 30.6 |  | 
UGAUCUAGCGGAGGAUAUACAUGAGGAUCACCCAUGUAGACUCUAUGACCGUAGUCGUGGAGAGUGUAGAAGGCCGCUAGAUCU [JL ENG2 3.75] (Eterna round: R96, puzzle: Exclusion NG 2) | 16.6 | 13.1 |  |  |  | 8.79
UGAUCUAGCGGAGGAUAUACAUGAGGAUCACCCAUGUAGAUGAGUGUACCGUAGUGCACUAUUGUGUAGAAGGCCGCUAGAUCU [JL ENG2 3.63] (Eterna round: R96, puzzle: Exclusion NG 2) | 69.9 | 19.8 |  |  |  | 13.7
UGAUCUAGCGGAGGAUAUACAUGAGGAUCACCCAUGUAUAGGCUAUGACCGUAGUCGUGGCACGUGUAGAAGGCCGCUAGAUCU [JL ENG2 3.77] (Eterna round: R96, puzzle: Exclusion NG 2) | 12.7 | 12.8 |  |  |  | 8.1
UGAUGGAGGCAGGAUAUUUUGAUGGAUACGAUAAAAGAAGGGCUGACAUGAGGAUCACCCAUGUGGAUAGCUCA [Eternabot (L1) Solution 39] (Eterna round: R97, puzzle: Exclusion 6) | 17.8 | 14.4 |  |  |  | 
UGAUUCGGAGGAUAUACAUGAGGAUCACCCAUGUUACCGGAAGGUAGGAGAGGUCGCCGUAGAAGGCUGCACAU [Eternabot (Original) Solution 7] (Eterna round: R97, puzzle: Exclusion 3) | 30.4 | 31.5 |  |  |  | 
UGCAGACGAGGAUAUAGAUUUGAUAACAUGAGGAUCACCCAUGUGAUCGAUAGAUCAGAUUUAGAAGGUGUCUGCA [E5/8-B2] (Eterna round: R97, puzzle: Exclusion 5) | 579 | 431 |  |  |  | 
UGCAGACGAGGAUAUGAUCAAUAAUACAUGAGGAUCACCCAUGUAAUACUGAUCCAUGGAUCAGAAGGUGUCUGCA [E5/5-B2] (Eterna round: R97, puzzle: Exclusion 5) | 19.5 | 17.5 |  |  |  | 
UGCAUGCUAGGAUAUACGGGACAUUAGGGUUCGUUGUAUGGACAUGAGGAUCACCCAUGUAGAAGGAGCGUGCU [Mod5 of JL-ex2-2.15 mat747 mod] (puzzle: Exclusion 2) |  |  |  | 26 |  | 
UGCAUGGUAGGAUAUACGGAACAUUAGGGUUUGUUAUGUGGACAUGAGGAUCACCCAUGUAGAAGGGCCGUGCU [JL-ex2-2.15 mat747 mod] (puzzle: Exclusion 2) |  |  |  | 40.4 |  | 
UGCAUGUGAGGAUAUGUACCUGAGUGCUUUGCGCUCAGGAAACAGAAGGCACAUGAGGAUCACCCAUGUGAAAA [jl-ex4-4.46 ViennaUCT mod] (Eterna round: R97, puzzle: Exclusion 4) | 74.1 | 208 |  |  |  | 
UGCGGGCUUUUGAGACCUCACAUGAGGAUCACCCAUGUGCUUGUCUUGUGGGUCGGUAGGUCGUUGGCUGACUGACG [Sensor-V1 #97] (Eterna round: R97, puzzle: Sensor, turn-off variant 1) | 15.5 | 13.4 |  |  |  | 
UGCUACGGAGGAUAUACAUGAGGAUCACCCAUGUGAUAGAUUAUCGCGAAAGCGUAAUGUAGAAGGCCGUAGCU [jl-ex3-4.11 jl mod] (Eterna round: R97, puzzle: Exclusion 3) | 556 | 54.4 |  |  |  | 
UGCUGACGAGGAUAUACAUGAGGAUCACCCAUGUUGGUCAAGCGACUUCGGUCGCAAUGUAGAAGGCGUCAGCA [E3/8-A5] (Eterna round: R97, puzzle: Exclusion 3) | 290 | 513 |  |  |  | 
UGCUGACGAGGAUAUACAUGAGGAUCACCCAUGUUGGUCAAGCGACUUCGGUCGCAAUGUAGAAGGCGUCAGCU [E3/8-A6] (Eterna round: R97, puzzle: Exclusion 3) | 186 | 395 |  |  |  | 
